Measurements taken from patent publication US20040235029A1.

Molecular target: exonuclease V (ExoV) of E. coli, a component of RecBCD holoenzyme (E. coli) (UniProt P08394)
Assay: cell-based or functional assay

UniProt P08394, sequence (P08394 2-1180 limits assumed, chain 1 of 3): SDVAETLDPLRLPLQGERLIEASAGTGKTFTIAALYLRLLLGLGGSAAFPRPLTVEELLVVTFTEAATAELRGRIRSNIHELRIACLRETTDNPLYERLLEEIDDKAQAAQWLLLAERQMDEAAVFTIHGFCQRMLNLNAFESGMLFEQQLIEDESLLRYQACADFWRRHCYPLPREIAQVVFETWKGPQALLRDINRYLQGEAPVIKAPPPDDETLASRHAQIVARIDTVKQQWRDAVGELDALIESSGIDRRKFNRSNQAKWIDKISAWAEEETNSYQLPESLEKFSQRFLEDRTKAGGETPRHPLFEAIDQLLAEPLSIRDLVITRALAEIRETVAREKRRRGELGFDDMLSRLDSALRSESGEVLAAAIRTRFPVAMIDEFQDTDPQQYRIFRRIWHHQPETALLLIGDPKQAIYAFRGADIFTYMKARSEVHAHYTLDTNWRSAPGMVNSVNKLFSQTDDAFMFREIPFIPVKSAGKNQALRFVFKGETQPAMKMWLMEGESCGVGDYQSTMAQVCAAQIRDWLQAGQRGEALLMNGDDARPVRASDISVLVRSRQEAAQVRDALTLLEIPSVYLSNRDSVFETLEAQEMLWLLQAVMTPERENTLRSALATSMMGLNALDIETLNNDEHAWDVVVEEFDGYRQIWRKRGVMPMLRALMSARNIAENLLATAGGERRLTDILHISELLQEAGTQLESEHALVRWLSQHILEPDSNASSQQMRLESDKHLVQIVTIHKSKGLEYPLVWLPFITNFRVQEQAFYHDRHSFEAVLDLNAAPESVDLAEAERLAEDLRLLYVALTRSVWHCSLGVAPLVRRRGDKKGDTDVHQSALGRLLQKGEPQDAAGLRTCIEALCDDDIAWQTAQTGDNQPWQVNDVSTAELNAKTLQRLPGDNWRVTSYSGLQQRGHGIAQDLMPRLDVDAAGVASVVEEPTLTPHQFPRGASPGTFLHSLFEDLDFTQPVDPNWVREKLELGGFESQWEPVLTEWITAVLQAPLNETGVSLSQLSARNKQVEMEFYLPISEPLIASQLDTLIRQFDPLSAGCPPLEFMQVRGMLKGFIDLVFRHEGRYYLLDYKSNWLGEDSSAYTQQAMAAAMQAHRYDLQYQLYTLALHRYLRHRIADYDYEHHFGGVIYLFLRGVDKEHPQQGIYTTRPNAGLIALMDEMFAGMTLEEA
UniProt P08394, sequence (P07648 whole entry, chain 2 of 3, further chain): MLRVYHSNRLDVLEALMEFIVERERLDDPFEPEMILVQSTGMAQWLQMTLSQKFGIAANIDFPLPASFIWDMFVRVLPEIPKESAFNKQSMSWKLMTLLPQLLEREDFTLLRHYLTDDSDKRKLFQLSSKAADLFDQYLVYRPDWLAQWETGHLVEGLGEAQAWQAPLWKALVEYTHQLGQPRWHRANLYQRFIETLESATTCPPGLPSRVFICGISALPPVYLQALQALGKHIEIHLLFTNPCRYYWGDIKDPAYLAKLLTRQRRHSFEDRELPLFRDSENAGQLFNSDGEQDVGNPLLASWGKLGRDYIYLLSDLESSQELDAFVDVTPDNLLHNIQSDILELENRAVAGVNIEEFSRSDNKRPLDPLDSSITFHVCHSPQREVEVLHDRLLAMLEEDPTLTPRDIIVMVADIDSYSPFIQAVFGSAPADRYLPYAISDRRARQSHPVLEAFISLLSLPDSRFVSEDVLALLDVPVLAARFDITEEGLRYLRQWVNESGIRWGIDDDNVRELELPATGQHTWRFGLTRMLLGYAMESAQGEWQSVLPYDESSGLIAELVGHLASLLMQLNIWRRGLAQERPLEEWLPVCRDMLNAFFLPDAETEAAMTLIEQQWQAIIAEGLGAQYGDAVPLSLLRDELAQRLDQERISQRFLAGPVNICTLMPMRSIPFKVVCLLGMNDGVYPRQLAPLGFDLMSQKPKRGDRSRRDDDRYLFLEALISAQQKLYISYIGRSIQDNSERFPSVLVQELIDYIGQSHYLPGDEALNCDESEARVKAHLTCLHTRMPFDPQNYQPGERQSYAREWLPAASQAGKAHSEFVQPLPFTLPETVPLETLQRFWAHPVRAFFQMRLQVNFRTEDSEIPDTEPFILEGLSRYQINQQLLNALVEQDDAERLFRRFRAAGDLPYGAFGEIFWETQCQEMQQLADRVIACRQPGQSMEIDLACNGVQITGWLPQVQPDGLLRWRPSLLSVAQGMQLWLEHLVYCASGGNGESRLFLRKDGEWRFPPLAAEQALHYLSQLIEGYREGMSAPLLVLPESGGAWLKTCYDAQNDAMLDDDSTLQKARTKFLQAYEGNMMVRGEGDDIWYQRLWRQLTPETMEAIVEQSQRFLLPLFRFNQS
UniProt P08394, sequence (P04993 whole entry, chain 3 of 3, further chain): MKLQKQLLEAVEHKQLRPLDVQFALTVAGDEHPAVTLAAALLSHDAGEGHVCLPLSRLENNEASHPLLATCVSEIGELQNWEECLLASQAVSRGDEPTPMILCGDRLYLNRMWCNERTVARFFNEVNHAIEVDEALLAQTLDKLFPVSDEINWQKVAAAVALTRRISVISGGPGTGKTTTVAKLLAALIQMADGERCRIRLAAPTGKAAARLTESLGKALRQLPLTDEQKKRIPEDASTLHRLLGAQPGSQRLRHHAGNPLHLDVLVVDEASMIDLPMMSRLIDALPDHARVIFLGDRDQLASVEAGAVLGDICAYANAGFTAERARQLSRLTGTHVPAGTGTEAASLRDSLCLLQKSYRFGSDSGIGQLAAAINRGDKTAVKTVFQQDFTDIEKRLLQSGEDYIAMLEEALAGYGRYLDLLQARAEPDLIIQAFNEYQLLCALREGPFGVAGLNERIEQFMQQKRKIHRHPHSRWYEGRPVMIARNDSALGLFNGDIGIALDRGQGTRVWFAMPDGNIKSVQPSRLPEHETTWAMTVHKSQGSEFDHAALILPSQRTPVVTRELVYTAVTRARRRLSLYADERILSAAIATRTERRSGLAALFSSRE

With “GamS protein of bacteriophage lambda with C-terminal 6His tag (from UniProt P03702 41-138)” the GFP expression from linear template in batch IVT with co-expressed GamS plasmid template (Coomassie staining of gel) was greater than 2 fold, the GFP expression from linear template in batch IVT with crude GamS (PAGE, Coomassie), against control reaction without GamS was 2 fold and the GFP protein synthesis from a linear template in batch mode IVT (Coomassie staining of gel), against control reactions lacking GamS was 3 fold.
